Experimental findings from publication PMC3302758 are described below.

One experiment deals with 14-3-3ε (UniProt P62258). The experiment can be described thus: CFTR IP, 14-3-3ε immunoblot. Conditions: reference: basal cells; sites S660,S670,S700,S712,S737,S753,S768,S795,S813.
The target of another experiment is 14-3-3β (UniProt P31946). In words: CFTR IP, 14-3-3β immunoblot. Conditions: reference: basal cells; sites S660,S670,S700,S712,S737,S753,S768,S795,S813. On the technique in general: Immunoblotting shows a protein as a band on a membrane.

As for “CFTR (from UniProt P13569) forskolin 10 µM, 15 min”, the fold change with 14-3-3ε was 3.1 fold; in the experiment with 14-3-3β, 2.3 fold.
